Data on 94 variants can be found in the supplement of paper PMC10567573.

B1: ACSBG2 (parent)
chain: TPMTIPEFFRESVNRFGTYPALAS
B2: PDS5B (parent)
chain: ITYPPGVKEISDKISKEEMVRRLK
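Note: lentivirally expressed fusions sorted by FACS into six bins by GFP to DsRed ratio, PSI derived from sequencing read proportions per bin multiplied by bin number.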

Variants of B1 are the subject of one data set. Briefly: protein stability index of a GFP-peptide fusion (GPS, HEK-293T) (PSI 1-6); higher = more stable. Conditions: c terminus: a fixed tail appended.
In the case of TPMTAPEFFRESVNRFGTYPALAS [I5A], the protein stability index came to 2.44. Consider TPMWIPEFFRESVNRFGTYPALAS [T4W], for which the protein stability index stood at 2.19. The same measure, in the same setting: in the case of TPMAIPEFFRESVNRFGTYPALAS [T4A] it was 2.62. Still for that read-out and setting: in the case of TPMIIPEFFRESVNRFGTYPALAS [T4I] it was 1.88. Same read-out and setting: in the case of TPMMIPEFFRESVNRFGTYPALAS [T4M] it was 2.17.

With TPMLIPEFFRESVNRFGTYPALAS [T4L], the protein stability index amounted to 1.86. The same measure, in the same setting: in the case of TPMVIPEFFRESVNRFGTYPALAS [T4V] it was 3.26; in that of TPMQIPEFFRESVNRFGTYPALAS [T4Q], 2.13. TPMFIPEFFRESVNRFGTYPALAS [T4F]: the protein stability index came out at 1.65. On the same count and under the same terms, in the case of TPMNIPEFFRESVNRFGTYPALAS [T4N] it was 2.4; in that of TPMRIPEFFRESVNRFGTYPALAS [T4R], 2.32; in that of TPMHIPEFFRESVNRFGTYPALAS [T4H], 2.38. Same read-out and setting: in the case of TPMSIPEFFRESVNRFGTYPALAS [T4S] it was 1.99; in that of TPMYIPEFFRESVNRFGTYPALAS [T4Y], 2.62. On the same count and under the same terms, in the case of TPMKIPEFFRESVNRFGTYPALAS [T4K] it was 2.31; in that of TPMPIPEFFRESVNRFGTYPALAS [T4P], 2.73. With TPMDIPEFFRESVNRFGTYPALAS [T4D], the protein stability index is 2.23.

With TPMGIPEFFRESVNRFGTYPALAS [T4G], the protein stability index worked out at 2.34. Same read-out and setting: in the case of TPMEIPEFFRESVNRFGTYPALAS [T4E] it was 2.52; in that of TPMCIPEFFRESVNRFGTYPALAS [T4C], 2.36; in that of KPMTIPEFFRESVNRFGTYPALAS [T1K], 3.04. The same measure, in the same setting: in the case of PPMTIPEFFRESVNRFGTYPALAS [T1P] it was 2.43; in that of GPMTIPEFFRESVNRFGTYPALAS [T1G], 2.13; in that of VPMTIPEFFRESVNRFGTYPALAS [T1V], 1.93. Turning to HPMTIPEFFRESVNRFGTYPALAS [T1H], the protein stability index is 2.07. On the same count and under the same terms, the value for NPMTIPEFFRESVNRFGTYPALAS [T1N] was 2.12; that for LPMTIPEFFRESVNRFGTYPALAS [T1L] was 2.08; that for APMTIPEFFRESVNRFGTYPALAS [T1A] was 2.28. For CPMTIPEFFRESVNRFGTYPALAS [T1C], the protein stability index came out at 1.73. Regarding YPMTIPEFFRESVNRFGTYPALAS [T1Y], the protein stability index came out at 2.27.

Consider QPMTIPEFFRESVNRFGTYPALAS [T1Q], for which the protein stability index was 2.44.

For the variant IPMTIPEFFRESVNRFGTYPALAS [T1I], the protein stability index was 1.93.

WPMTIPEFFRESVNRFGTYPALAS [T1W]: the protein stability index turned out to be 2. On the same count and under the same terms, the value for SPMTIPEFFRESVNRFGTYPALAS [T1S] was 2.13; that for FPMTIPEFFRESVNRFGTYPALAS [T1F] was 2.24. The same measure, in the same setting: the value for RPMTIPEFFRESVNRFGTYPALAS [T1R] was 2.34.

For EPMTIPEFFRESVNRFGTYPALAS [T1E], the protein stability index stood at 2.12. For MPMTIPEFFRESVNRFGTYPALAS [T1M], the protein stability index stood at 1.85.

Turning to DPMTIPEFFRESVNRFGTYPALAS [T1D], the protein stability index was determined as 2.94. Still for that read-out and setting: in the case of TNMTIPEFFRESVNRFGTYPALAS [P2N] it was 2.2; in that of TCMTIPEFFRESVNRFGTYPALAS [P2C], 1.72.

In the case of TRMTIPEFFRESVNRFGTYPALAS [P2R], the protein stability index was 2.12. On the same count and under the same terms, in the case of TKMTIPEFFRESVNRFGTYPALAS [P2K] it was 2.01. For the variant TDMTIPEFFRESVNRFGTYPALAS [P2D], the protein stability index is 2.65.

For TWMTIPEFFRESVNRFGTYPALAS [P2W], the protein stability index was determined as 1.4. The same measure, in the same setting: the value for TVMTIPEFFRESVNRFGTYPALAS [P2V] was 1.98; that for TYMTIPEFFRESVNRFGTYPALAS [P2Y] was 2.88.

For the variant THMTIPEFFRESVNRFGTYPALAS [P2H], the protein stability index came to 2.29. With TTMTIPEFFRESVNRFGTYPALAS [P2T], the protein stability index came to 2.35.

Regarding TEMTIPEFFRESVNRFGTYPALAS [P2E], the protein stability index worked out at 2.89. For the variant TIMTIPEFFRESVNRFGTYPALAS [P2I], the protein stability index was found to be 1.44. Same read-out and setting: the value for TSMTIPEFFRESVNRFGTYPALAS [P2S] was 2.41; that for TAMTIPEFFRESVNRFGTYPALAS [P2A] was 2.

Take TQMTIPEFFRESVNRFGTYPALAS [P2Q]: the protein stability index stood at 2.4. Same read-out and setting: in the case of TGMTIPEFFRESVNRFGTYPALAS [P2G] it was 2.12; in that of TFMTIPEFFRESVNRFGTYPALAS [P2F], 1.83; in that of TLMTIPEFFRESVNRFGTYPALAS [P2L], 1.93. Still for that read-out and setting: in the case of TMMTIPEFFRESVNRFGTYPALAS [P2M] it was 2.55; in that of TPLTIPEFFRESVNRFGTYPALAS [M3L], 2.09; in that of TPCTIPEFFRESVNRFGTYPALAS [M3C], 2.34. Same read-out and setting: the value for TPATIPEFFRESVNRFGTYPALAS [M3A] was 2.34; that for TPFTIPEFFRESVNRFGTYPALAS [M3F] was 2.14; that for TPSTIPEFFRESVNRFGTYPALAS [M3S] was 2.8. Consider TPDTIPEFFRESVNRFGTYPALAS [M3D], for which the protein stability index was found to be 2.52. Still for that read-out and setting: in the case of TPITIPEFFRESVNRFGTYPALAS [M3I] it was 2.5; in that of TPNTIPEFFRESVNRFGTYPALAS [M3N], 2.62. With TPTTIPEFFRESVNRFGTYPALAS [M3T], the protein stability index worked out at 2.55. On the same count and under the same terms, in the case of TPGTIPEFFRESVNRFGTYPALAS [M3G] it was 2.54; in that of TPETIPEFFRESVNRFGTYPALAS [M3E], 2.44. Still for that read-out and setting: in the case of TPQTIPEFFRESVNRFGTYPALAS [M3Q] it was 3.21; in that of TPHTIPEFFRESVNRFGTYPALAS [M3H], 2.37. On the same count and under the same terms, the value for TPWTIPEFFRESVNRFGTYPALAS [M3W] was 1.69; that for TPYTIPEFFRESVNRFGTYPALAS [M3Y] was 2.49.

As for TPKTIPEFFRESVNRFGTYPALAS [M3K], the protein stability index came to 2.46. The same measure, in the same setting: in the case of TPPTIPEFFRESVNRFGTYPALAS [M3P] it was 2.02.

TPRTIPEFFRESVNRFGTYPALAS [M3R]: the protein stability index stood at 2.61. On the same count and under the same terms, in the case of TPVTIPEFFRESVNRFGTYPALAS [M3V] it was 2.11.

In a further data set the parent is B2. Described as above. Conditions: c terminus: a fixed tail appended.
As to ITYPPGVKEISDKISKWEMVRRLK [E17W], the protein stability index was 2.75. The same measure, in the same setting: the value for ITYPPGVKEISDKISKSEMVRRLK [E17S] was 3.68; that for ITYPPGVKEISDKISKPEMVRRLK [E17P] was 3.6. Same read-out and setting: in the case of ITYPPGVKEISDKISKGEMVRRLK [E17G] it was 3.52; in that of ITYPPGVKEISDKISKNEMVRRLK [E17N], 3.75; in that of ITYTPGVKEISDKISKEEMVRRLK [P4T], 3.15.

In the case of ITYVPGVKEISDKISKEEMVRRLK [P4V], the protein stability index turned out to be 2.97. As for ITYDPGVKEISDKISKEEMVRRLK [P4D], the protein stability index is 3.24. Still for that read-out and setting: the value for ITYLPGVKEISDKISKEEMVRRLK [P4L] was 3.16; that for ITYMPGVKEISDKISKEEMVRRLK [P4M] was 3.

For ITYPPGVKEISDLISKEEMVRRLK [K13L], the protein stability index stood at 3.3. As to ITYPPGVKEISDRISKEEMVRRLK [K13R], the protein stability index amounted to 4.39. On the same count and under the same terms, the value for ITYPPGVKEISDWISKEEMVRRLK [K13W] was 2.84; that for ITYPPGVKEISDMISKEEMVRRLK [K13M] was 3.76.

For the variant ITYPPGVKEISDAISKEEMVRRLK [K13A], the protein stability index was 4.08. The same measure, in the same setting: in the case of ITYPPGVKEISDKFSKEEMVRRLK [I14F] it was 3.03; in that of ITYPPGVKEISDKMSKEEMVRRLK [I14M], 4.34.
